B1: KCNA1 (parent)
chain: LKASMRELGLLIFFLFIGVILFSS

Variants of: B1
Assay: protein stability index of a GFP-peptide fusion (GPS, HEK-293T) (PSI 1-6); higher = more stable
Conditions: c terminus: a fixed tail appended
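Note: lentivirally expressed fusions sorted by FACS into six bins by GFP to DsRed ratio, PSI derived from sequencing read proportions per bin multiplied by bin number.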

Row | Variant | protein stability index
1 | LYASMRELGLLIFFLFIGVILFSS | 2.35
2 | LKCSMRELGLLIFFLFIGVILFSS | 1.92
3 | LKDSMRELGLLIFFLFIGVILFSS | 2.46
4 | LKESMRELGLLIFFLFIGVILFSS | 1.78
5 | LKFSMRELGLLIFFLFIGVILFSS | 1.72
6 | LKGSMRELGLLIFFLFIGVILFSS | 1.65
7 | LKHSMRELGLLIFFLFIGVILFSS | 2.89
8 | LKISMRELGLLIFFLFIGVILFSS | 1.53
9 | LKKSMRELGLLIFFLFIGVILFSS | 2.16
10 | LKLSMRELGLLIFFLFIGVILFSS | 1.77
11 | LKMSMRELGLLIFFLFIGVILFSS | 1.58
12 | LKNSMRELGLLIFFLFIGVILFSS | 1.86
13 | LKPSMRELGLLIFFLFIGVILFSS | 2.17
14 | LKQSMRELGLLIFFLFIGVILFSS | 2.12
15 | LKRSMRELGLLIFFLFIGVILFSS | 1.74
16 | LKSSMRELGLLIFFLFIGVILFSS | 2.37
17 | LKTSMRELGLLIFFLFIGVILFSS | 2.12
18 | LKVSMRELGLLIFFLFIGVILFSS | 1.67
19 | LKWSMRELGLLIFFLFIGVILFSS | 2.14
20 | LKYSMRELGLLIFFLFIGVILFSS | 2.06
21 | LKAAMRELGLLIFFLFIGVILFSS | 3.21
22 | LKACMRELGLLIFFLFIGVILFSS | 2.87
23 | LKADMRELGLLIFFLFIGVILFSS | 3.58
24 | LKAEMRELGLLIFFLFIGVILFSS | 3.02

Row | Variant | protein stability index
25 | LKAFMRELGLLIFFLFIGVILFSS | 2.15
26 | LKAGMRELGLLIFFLFIGVILFSS | 1.91
27 | LKAHMRELGLLIFFLFIGVILFSS | 2.07
28 | LKAIMRELGLLIFFLFIGVILFSS | 1.69
29 | LKAKMRELGLLIFFLFIGVILFSS | 1.62
30 | LKALMRELGLLIFFLFIGVILFSS | 4.39
31 | LKAMMRELGLLIFFLFIGVILFSS | 1.97
32 | LKANMRELGLLIFFLFIGVILFSS | 2.31
33 | LKAPMRELGLLIFFLFIGVILFSS | 3.03
34 | LKAQMRELGLLIFFLFIGVILFSS | 2.55
35 | LKARMRELGLLIFFLFIGVILFSS | 2.09
36 | LKATMRELGLLIFFLFIGVILFSS | 2.46
37 | LKAVMRELGLLIFFLFIGVILFSS | 2.65
38 | LKAWMRELGLLIFFLFIGVILFSS | 1.55
39 | LKAYMRELGLLIFFLFIGVILFSS | 2.17
40 | LKASARELGLLIFFLFIGVILFSS | 3.19
41 | LKASCRELGLLIFFLFIGVILFSS | 2.92
42 | LKASDRELGLLIFFLFIGVILFSS | 2.29
43 | LKASFRELGLLIFFLFIGVILFSS | 1.98
44 | LKASGRELGLLIFFLFIGVILFSS | 1.28
45 | LKASIRELGLLIFFLFIGVILFSS | 2.19
46 | LKASKRELGLLIFFLFIGVILFSS | 1.94
47 | LKASLRELGLLIFFLFIGVILFSS | 1.82
48 | LKASNRELGLLIFFLFIGVILFSS | 2.51

Row | Variant | protein stability index
49 | LKASPRELGLLIFFLFIGVILFSS | 3.22
50 | LKASQRELGLLIFFLFIGVILFSS | 3.33
51 | LKASRRELGLLIFFLFIGVILFSS | 1.76
52 | LKASSRELGLLIFFLFIGVILFSS | 2.33
53 | LKASTRELGLLIFFLFIGVILFSS | 2.21
54 | LKASVRELGLLIFFLFIGVILFSS | 2.79
55 | LKASWRELGLLIFFLFIGVILFSS | 1.78
56 | LKASYRELGLLIFFLFIGVILFSS | 2.42
57 | LKASMAELGLLIFFLFIGVILFSS | 3.59
58 | LKASMCELGLLIFFLFIGVILFSS | 3.31
59 | LKASMDELGLLIFFLFIGVILFSS | 3.02
60 | LKASMGELGLLIFFLFIGVILFSS | 2.63
61 | LKASMHELGLLIFFLFIGVILFSS | 3.36
62 | LKASMIELGLLIFFLFIGVILFSS | 3.16
63 | LKASMKELGLLIFFLFIGVILFSS | 1.61
64 | LKASMLELGLLIFFLFIGVILFSS | 3.12
65 | LKASMMELGLLIFFLFIGVILFSS | 3.15
66 | LKASMNELGLLIFFLFIGVILFSS | 2.85
67 | LKASMPELGLLIFFLFIGVILFSS | 2.36
68 | LKASMQELGLLIFFLFIGVILFSS | 2.28
69 | LKASMSELGLLIFFLFIGVILFSS | 2.88
70 | LKASMTELGLLIFFLFIGVILFSS | 3.38
71 | LKASMVELGLLIFFLFIGVILFSS | 2.45
72 | LKASMWELGLLIFFLFIGVILFSS | 2.35

Row | Variant | protein stability index
73 | LKASMYELGLLIFFLFIGVILFSS | 3.07
74 | LKASMRALGLLIFFLFIGVILFSS | 2.13
75 | LKASMRCLGLLIFFLFIGVILFSS | 1.65
76 | LKASMRDLGLLIFFLFIGVILFSS | 2.72
77 | LKASMRFLGLLIFFLFIGVILFSS | 1.84
78 | LKASMRGLGLLIFFLFIGVILFSS | 2.13
79 | LKASMRHLGLLIFFLFIGVILFSS | 2.29
80 | LKASMRILGLLIFFLFIGVILFSS | 2.77
81 | LKASMRKLGLLIFFLFIGVILFSS | 2.21
82 | LKASMRLLGLLIFFLFIGVILFSS | 2.16
83 | LKASMRMLGLLIFFLFIGVILFSS | 1.95
84 | LKASMRNLGLLIFFLFIGVILFSS | 1.55
85 | LKASMRPLGLLIFFLFIGVILFSS | 2.28
86 | LKASMRQLGLLIFFLFIGVILFSS | 1.68
87 | LKASMRRLGLLIFFLFIGVILFSS | 2.07
88 | LKASMRSLGLLIFFLFIGVILFSS | 1.88
89 | LKASMRTLGLLIFFLFIGVILFSS | 2.01
90 | LKASMRVLGLLIFFLFIGVILFSS | 1.99
91 | LKASMRWLGLLIFFLFIGVILFSS | 1.42
92 | LKASMRYLGLLIFFLFIGVILFSS | 1.74
93 | LKASMREAGLLIFFLFIGVILFSS | 2.58
94 | LKASMRECGLLIFFLFIGVILFSS | 2.28
